Reference: patent US9862971B2 (BUNDESREPUBLIK DEUTSCHLAND, LETZTVERTRETEN DURCH DEN …, dated 2018)

T1: Human SLAM (signaling lymphocyte-activation molecule) (human, UniProt Q13291)
T1 sequence: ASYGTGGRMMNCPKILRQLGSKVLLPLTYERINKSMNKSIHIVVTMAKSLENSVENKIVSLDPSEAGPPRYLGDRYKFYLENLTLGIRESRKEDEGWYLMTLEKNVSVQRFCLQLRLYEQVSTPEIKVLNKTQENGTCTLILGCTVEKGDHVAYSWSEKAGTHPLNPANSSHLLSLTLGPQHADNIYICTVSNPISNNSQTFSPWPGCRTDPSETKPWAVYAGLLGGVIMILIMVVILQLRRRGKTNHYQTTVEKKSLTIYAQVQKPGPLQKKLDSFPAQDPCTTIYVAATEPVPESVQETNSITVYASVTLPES

B1: HmutEGFΔ18 (other)
chain: MGSRIVINREHLMIDRPYVLLAVLFVMFLSLIGLLAIAGIRLHRAAIYTAEIHKSLSTNLDVTNSIEHQVKDVLTPLFKIIGDEVGLRTPQRFTDLVKFISDKIKFLNPDREYDFRDLTWCINPPERIKLDYDQYCADVAAEELMNALVNSTLLETRTTNQFLAVSKGNCSGPTTIRGQFSNMSLSLLDLYLGRGYNVSSIVTMTSQGMYGGTYLVEKPNLSSKRSELSQLSMYRVFEVGVIRNPGLGAPVFHMTNYLEQPVSNDLSNCMVALGELKLAALCHGEDSITIPYQGSGKGVSFQLVKLGVWKSPTDMQSWVPLSTDDPVIDRLYLSSHRGVIADNQAKWAVPTTRTDDKLRMETCFQQACKGKIQALCENPEWAPLKDNRIPSYGVLSVDLSLTVELKIKIASGFGPLITHGSGMDLYKSNHNNVYWLTIPPMKNLALGVINTLEWIPRFKVSPALFTVPIKEAGGDCHAPTYLPAEVDGDVKLSSNLVILPGQDLQYVLATYDTSAVEHAVVYYVYSPSRLSSYFYPFRLPIKGVPIELQVECFTWDQKLWCRHFCVLADSESGGHITHSGMVGMGVSCTVTREDGTNAAQPAMANSDSECPLSHDGYCLHDGVCMYIEALDKYACNCVVGYIGERCQYRDLKWWELRAAARGSHHHHHH
B2: HmutscFvCD20Δ19 (other)
chain: MSRIVINREHLMIDRPYVLLAVLFVMFLSLIGLLAIAGIRLHRAAIYTAEIHKSLSTNLDVTNSIEHQVKDVLTPLFKIIGDEVGLRTPQRFTDLVKFISDKIKFLNPDREYDFRDLTWCINPPERIKLDYDQYCADVAAEELMNALVNSTLLETRTTNQFLAVSKGNCSGPTTIRGQFSNMSLSLLDLYLGRGYNVSSIVTMTSQGMYGGTYLVEKPNLSSKRSELSQLSMYRVFEVGVIRNPGLGAPVFHMTNYLEQPVSNDLSNCMVALGELKLAALCHGEDSITIPYQGSGKGVSFQLVKLGVWKSPTDMQSWVPLSTDDPVIDRLYLSSHRGVIADNQAKWAVPTTRTDDKLRMETCFQQACKGKIQALCENPEWAPLKDNRIPSYGVLSVDLSLTVELKIKIASGFGPLITHGSGMDLYKSNHNNVYWLTIPPMKNLALGVINTLEWIPRFKVSPALFTVPIKEAGGDCHAPTYLPAEVDGDVKLSSNLVILPGQDLQYVLATYDTSAVEHAVVYYVYSPSRLSSYFYPFRLPIKGVPIELQVECFTWDQKLWCRHFCVLADSESGGHITHSGMVGMGVSCTVTREDGTNAAQPAIEGRMAQVQLVQSGAELVKPGASVKMSCKASGYTFTSYNMHWVKQTPGQGLEWIGAIYPGNGDTSYNQKFKGKATLTADKSSSTAYMQLSSLTSEDSAVYYCARAQLRPNYWYFDVWGAGTTVTVSKISGGGGSGGGGSGGGGSGGSSDIVLSQSPAILSASPGEKVTMTCRASSSVSYMHWYQQKPGSSPKPWIYATSNLASGVPARFSGSGSGTSYSLTISRVEAEDAATYYCQQWISNPPTFGAGTKLELKAAARGSHHHHHH
B3: HmutEGFΔ19 (other)
chain: MSRIVINREHLMIDRPYVLLAVLFVMFLSLIGLLAIAGIRLHRAAIYTAEIHKSLSTNLDVTNSIEHQVKDVLTPLFKIIGDEVGLRTPQRFTDLVKFISDKIKFLNPDREYDFRDLTWCINPPERIKLDYDQYCADVAAEELMNALVNSTLLETRTTNQFLAVSKGNCSGPTTIRGQFSNMSLSLLDLYLGRGYNVSSIVTMTSQGMYGGTYLVEKPNLSSKRSELSQLSMYRVFEVGVIRNPGLGAPVFHMTNYLEQPVSNDLSNCMVALGELKLAALCHGEDSITIPYQGSGKGVSFQLVKLGVWKSPTDMQSWVPLSTDDPVIDRLYLSSHRGVIADNQAKWAVPTTRTDDKLRMETCFQQACKGKIQALCENPEWAPLKDNRIPSYGVLSVDLSLTVELKIKIASGFGPLITHGSGMDLYKSNHNNVYWLTIPPMKNLALGVINTLEWIPRFKVSPALFTVPIKEAGGDCHAPTYLPAEVDGDVKLSSNLVILPGQDLQYVLATYDTSAVEHAVVYYVYSPSRLSSYFYPFRLPIKGVPIELQVECFTWDQKLWCRHFCVLADSESGGHITHSGMVGMGVSCTVTREDGTNAAQPAMANSDSECPLSHDGYCLHDGVCMYIEALDKYACNCVVGYIGERCQYRDLKWWELRAAARGSHHHHHH

What was measured:
Experiment in all cases: cell-based or functional assay
Human SLAM (signaling …) = molecular target: T1, Human SLAM (signaling …)
CD46 = CD46 (human, UniProt P15529)
EGF-receptor = EGF-receptor (Homo sapiens (Human), UniProt P00533)
human CD20 = human CD20 (human, UniProt P11836)

Binder	titer [t.u./ml] of HIV-1 vector particles on CHO-hSLAM cells, concentrated supernatant (Human SLAM (signaling …)) [t.u./ml]	titer [t.u./ml] of HIV-1 vector particles on CHO-BC1 cells, concentrated supernatant (CD46) [t.u./ml]	titer [t.u./ml] of HIV-1 vector particles on A-431 cells, concentrated supernatant (EGF-receptor) [t.u./ml]	titer [t.u./ml] of HIV-1 vector particles on HT1080-CD20 cells, concentrated supernatant (human CD20) [t.u./ml]
B1	280	0	270000	–
B2	–	–	–	1.32e+06
B3	160	0	22000	–
